Article PMC9371724 (2022)

T1: HA69 peptide on HLA DQB1*06:02/DQA1*01:02 (DQ0602) (human)
T1 peptide: AMERNAGSGIIISDT

B1: TCR CAAFENVLHC / CASSERPYPGETQYF (TCR)
alpha TRAV13-1 TRAJ35 CDR3: CAAFENVLHC
beta TRBV6-1 TRBJ2-5 CDR3: CASSERPYPGETQYF
B2: TCR CAGRPTSGGSNYKLTF / CASSGGQAYYGYTF (TCR)
alpha TRAV35 TRAJ53 CDR3: CAGRPTSGGSNYKLTF
beta TRBV19 TRBJ1-2 CDR3: CASSGGQAYYGYTF
B3: TCR CAVEETSGSRLTF / CASSQPDTRADTQYF (TCR)
alpha TRAV39 TRAJ58 CDR3: CAVEETSGSRLTF
beta TRBV4-2 TRBJ2-3 CDR3: CASSQPDTRADTQYF
B4: TCR CIVRSQGGSYIPTF / CATSRDTMTSIGTDTQYF (TCR)
alpha TRAV26-1 TRAJ6 CDR3: CIVRSQGGSYIPTF
beta TRBV15 TRBJ2-3 CDR3: CATSRDTMTSIGTDTQYF
B5: TCR CAASRGTSYDKVIF / CSVRGLYNEQFF (TCR)
alpha TRAV13-1 TRAJ50 CDR3: CAASRGTSYDKVIF
beta TRBV29-1 TRBJ2-1 CDR3: CSVRGLYNEQFF
B6: TCR872 (TCR)
alpha TRAV17 TRAJ34 CDR3: CATVGYNTDKLIF
beta TRBV4-3 TRBJ1-4 CDR3: CASSQGLGPTNEKLFF
B7: TCR755 (TCR)
alpha TRAV12-3 TRAJ8 CDR3: CAMSETRFQKLVF
beta TRBV19 TRBJ2-7 CDR3: CASSSTGGNYEQYF
B8: TCR CATDSYNTDKLIF / CASSQGAGAQTYYGYTF (TCR)
alpha TRAV17 TRAJ34 CDR3: CATDSYNTDKLIF
beta TRBV4-3 TRBJ1-2 CDR3: CASSQGAGAQTYYGYTF
B9: TCR CIASGTYKYIF / CASSKGETGTQWSYEQYF (TCR)
alpha TRAV26-1 TRAJ40 CDR3: CIASGTYKYIF
beta TRBV4-2 TRBJ2-7 CDR3: CASSKGETGTQWSYEQYF
B10: TCR285 (TCR)
alpha TRAV13-1 TRAJ49 CDR3: CAATPGRTGNQFYF
beta TRBV4-2 TRBJ2-5 CDR3: CASSQGQGDETQYF
B11: TCR CAATDTGNQFYF / CASSQHGQGNQPQHF (TCR)
alpha TRAV13-1 TRAJ49 CDR3: CAATDTGNQFYF
beta TRBV7-8 TRBJ1-5 CDR3: CASSQHGQGNQPQHF
B12: TCR CATDAELGNKLVF / CASSQDRGRGTDTQYF (TCR)
alpha TRAV17 TRAJ47 CDR3: CATDAELGNKLVF
beta TRBV4-2 TRBJ2-3 CDR3: CASSQDRGRGTDTQYF
B13: TCR CALTMKTSYDKVIF / CASSIGTSGPDTQYF (TCR)
alpha TRAV9-2 TRAJ50 CDR3: CALTMKTSYDKVIF
beta TRBV19 TRBJ2-3 CDR3: CASSIGTSGPDTQYF
B14: TCR CVHNAGNMLTF / CASSFQGLSTDTQYF (TCR)
alpha TRAV25 TRAJ39 CDR3: CVHNAGNMLTF
beta TRBV12-3 TRBJ2-3 CDR3: CASSFQGLSTDTQYF
B15: …-1 (TCR)
alpha TRAV8-3 TRAJ24 CDR3: CAVGLTDSWGKLQF
beta TRBV19 TRBJ2-1 CDR3: CASSFSKNGNSYNEQFF
B16: TCR867 (TCR)
alpha TRAV17 TRAJ34 CDR3: CATDAYNTDKLIF
beta TRBV4-3 TRBJ1-3 CDR3: CASSQGRTASGNTIYF
B17: TCR CAVSERGAQKLVF / CSAPSGGGRASGANVLTF (TCR)
alpha TRAV8-6 TRAJ54 CDR3: CAVSERGAQKLVF
beta TRBV20-1 TRBJ2-6 CDR3: CSAPSGGGRASGANVLTF
B18: TCR CIVSPHGSGNTGKLIF / CASSIGARGQLFF (TCR)
alpha TRAV26-1 TRAJ37 CDR3: CIVSPHGSGNTGKLIF
beta TRBV19 TRBJ1-4 CDR3: CASSIGARGQLFF
B19: TCR CAVSEKNTGFQKLVF / CASRKGLGDTDTQYF (TCR)
alpha TRAV8-6 TRAJ8 CDR3: CAVSEKNTGFQKLVF
beta TRBV6-1 TRBJ2-3 CDR3: CASRKGLGDTDTQYF
B20: TCR CAGRPNSGGSNYKLTF / CASSGQQALYGYTF (TCR)
alpha TRAV35 TRAJ53 CDR3: CAGRPNSGGSNYKLTF
beta TRBV19 TRBJ1-2 CDR3: CASSGQQALYGYTF
B21: TCR CILRDVLSNFGNEKLTF / CASSQASVSVDTQYF (TCR)
alpha TRAV26-2 TRAJ48 CDR3: CILRDVLSNFGNEKLTF
beta TRBV4-2 TRBJ2-3 CDR3: CASSQASVSVDTQYF
B22: TCR CAGRPNSGGSNYKLTF / CASSDQAAWAGYTF (TCR)
alpha TRAV35 TRAJ53 CDR3: CAGRPNSGGSNYKLTF
beta TRBV19 TRBJ1-2 CDR3: CASSDQAAWAGYTF
B23: TCR CAASRGTSYDKVIF / CSATGLYNEQFF (TCR)
alpha TRAV13-1 TRAJ50 CDR3: CAASRGTSYDKVIF
beta TRBV20-1 TRBJ2-1 CDR3: CSATGLYNEQFF
B24: TCR861 (TCR)
alpha TRAV13-1 TRAJ50 CDR3: CAASRGTSYDKVIF
beta TRBV29-1 TRBJ2-1 CDR3: CSVRSLYNEQFF
B25: TCR CATDAYNTDKLIF / CASSQGAVPAGNTIYF (TCR)
alpha TRAV17 TRAJ34 CDR3: CATDAYNTDKLIF
beta TRBV4-3 TRBJ1-3 CDR3: CASSQGAVPAGNTIYF
B26: TCR CAMREGHIQGAQKLVF / CASSSGNLNTEAFF (TCR)
alpha TRAV14/DV4 TRAJ54 CDR3: CAMREGHIQGAQKLVF
beta TRBV19 TRBJ1-1 CDR3: CASSSGNLNTEAFF
B27: TCR CAGKENSGGSNYKLTF / CASRVQGARAEAFF (TCR)
alpha TRAV25 TRAJ53 CDR3: CAGKENSGGSNYKLTF
beta TRBV19 TRBJ1-1 CDR3: CASRVQGARAEAFF
B28: TCR CAAPGANNLFF / CASSGTGGQGYNEQFF (TCR)
alpha TRAV13-1 TRAJ36 CDR3: CAAPGANNLFF
beta TRBV2 TRBJ2-1 CDR3: CASSGTGGQGYNEQFF
B29: TCR CIVRAGGTSYGKLTF / CAWSPLAGTGAPQPQHF (TCR)
alpha TRAV26-1 TRAJ52 CDR3: CIVRAGGTSYGKLTF
beta TRBV30 TRBJ1-5 CDR3: CAWSPLAGTGAPQPQHF
B30: TCR538 (TCR)
alpha TRAV4 TRAJ42 CDR3: CLVGAPSLYGGSQGNLIF
beta TRBV7-8 TRBJ2-1 CDR3: CASNPAGAVSYNEQFF
B31: TCR CAAVGMNGGAQKLVF / CASRSQGWGTEAFF (TCR)
alpha TRAV13-1 TRAJ54 CDR3: CAAVGMNGGAQKLVF
beta TRBV19 TRBJ1-1 CDR3: CASRSQGWGTEAFF
B32: TCR CASAYTGTASKLTF / CASSIDLGGRADGGYTF (TCR)
alpha TRAV17 TRAJ44 CDR3: CASAYTGTASKLTF
beta TRBV19 TRBJ1-2 CDR3: CASSIDLGGRADGGYTF
B33: TCR CAVSRAGANNLFF / CASSQGLGPGLFNQPQHF (TCR)
alpha TRAV21 TRAJ36 CDR3: CAVSRAGANNLFF
beta TRBV4-3 TRBJ1-5 CDR3: CASSQGLGPGLFNQPQHF
B34: TCR819 (TCR)
alpha TRAV17 TRAJ34 CDR3: CATAAYNTDKLIF
beta TRBV4-3 TRBJ1-2 CDR3: CASSQAMTGGSDYGYTF
B35: TCR CAASRGTSYDKVIF / CSVDRYYNEQFF (TCR)
alpha TRAV13-1 TRAJ50 CDR3: CAASRGTSYDKVIF
beta TRBV29-1 TRBJ2-1 CDR3: CSVDRYYNEQFF
B36: TCR766 (TCR)
alpha TRAV17 TRAJ34 CDR3: CATASYNTDKLIF
beta TRBV4-3 TRBJ1-5 CDR3: CASSQGATGGSNQPQHF
B37: TCR CAASRGTSYDKVIF / CSTQRLYNEQFF (TCR)
alpha TRAV13-1 TRAJ50 CDR3: CAASRGTSYDKVIF
beta TRBV29-1 TRBJ2-1 CDR3: CSTQRLYNEQFF
B38: TCR839 (TCR)
alpha TRAV12-2 TRAJ37 CDR3: CAVNPPWSNTGKLIF
beta TRBV19 TRBJ2-5 CDR3: CASTRGVGTSGAKETQYF
B39: TCR CAAPGANNLFF / CASSQPHRTSVTGELFF (TCR)
alpha TRAV13-1 TRAJ36 CDR3: CAAPGANNLFF
beta TRBV4-2 TRBJ2-2 CDR3: CASSQPHRTSVTGELFF
B40: TCR846 (TCR)
alpha TRAV8-6 TRAJ54 CDR3: CAVSESAQGAQKLVF
beta TRBV19 TRBJ2-3 CDR3: CASSRPGLNTDTQYF
B41: TCR CATGHTGANSKLTF / CASSLQGTPNGNQPQHF (TCR)
alpha TRAV17 TRAJ56 CDR3: CATGHTGANSKLTF
beta TRBV19 TRBJ1-5 CDR3: CASSLQGTPNGNQPQHF
B42: TCR CAAADTGNQFYF / CASSSHGQGNQPQHF (TCR)
alpha TRAV13-1 TRAJ49 CDR3: CAAADTGNQFYF
beta TRBV7-8 TRBJ1-5 CDR3: CASSSHGQGNQPQHF
B43: …-1 (TCR)
alpha TRAV8-6 TRAJ24 CDR3: CAVSEDDSWGKLQF
beta TRBV29-1 TRBJ1-6 CDR3: CSVARDRNSPLHF

Target: T1, HA69 peptide on HLA …
Experiment: activation reporter or marker
B1: recognises. B2: recognises. B3: recognises. B4: recognises. B5: recognises. B6: recognises. B7: recognises. B8: recognises. B9: recognises. B10: recognises. B11: recognises. B12: recognises. B13: recognises. B14: recognises. B15: no recognition. B16: recognises. B17: recognises. B18: recognises. B19: recognises. B20: recognises. B21: recognises. B22: recognises. B23: recognises. B24: recognises. B25: recognises. B26: recognises. B27: recognises. B28: recognises. B29: recognises. B30: recognises. B31: recognises. B32: recognises. B33: recognises. B34: recognises. B35: recognises. B36: recognises. B37: recognises. B38: recognises. B39: recognises. B40: recognises. B41: recognises. B42: recognises. B43: no recognition.
